Here are results for five molecules from US5811298, “Rep-max protein having anti-oncogenic activity and uses thereof” (Albert Einstein College of Medicine of Yeshiva University, …, dated 1998).

B1: mouse Mxi-WR protein (other)
chain: MPSPRLQHSKPPRRLSRAQKHSSGSSNTSTANRSTHNELEKNRRAHLRLCLKRLKVLIPLGPDCTRHTTLGLLNKAKAHIKKLEEAERKSQHQLENLEREQRFLKRRLEQLQGPQEMERIRMDSIGSTISSDRSDSEREEIEVDVESTEFSHGKADSVSTTSISDLDDHSSLQSVGSDEGYSSASVKLSFAS
B2: mouse Mxi-SR protein (other)
chain: MERVRMINVQRLLEAAEFLERRERECEHGYASSFPSMPSPRLQHSKPPRRLSRAQKHSSGSSNTSTANRSTHNELEKNRRAHLRLCLKRLKVLIPLGPDCTRHTTLGLLNKAKAHIKKLEEAERKSQHQLENLEREQRFLKRRLEQLQGPQEMERIRMDSIGSTISSDRSDSEREEIEVDVESTEFSHGKADSVSTTSISDLDDHSSLQSVGSDEGYSSASVKLSFAS
B3: human MXI protein (other)
chain: B2 chain with R5K, R142W, A191V, S193N, V194I, L202I, Q209P, V211I, A227T
B4: mouse Mxi-SR-pro (other)
chain: B2 chain with L19P
B5: mouse Mxi-Δrep (other)
chain: MERFPSMPSPRLQHSKPPRRLSRAQKHSSGSSNTSTANRSTHNELEKNRRAHLRLCLKRLKVLIPLGPDCTRHTTLGLLNKAKAHIKKLEEAERKSQHQLENLEREQRFLKRRLEQLQGPQEMERIRMDSIGSTISSDRSDSEREEIEVDVESTEFSHGKADSVSTTSISDLDDHSSLQSVGSDEGYSSASVKLSFAS

Positions count from the first letter of the chain named.

The target of the test is mouse c-Myc (mouse, UniProt P01108-2). In words: cell-based or functional assay.
As for B1, the “fold suppression of c-myc/RAS foci formation, REF cooperation assay” value was determined as 1.74 fold suppression.

In the case of B2, the “fold suppression of c-myc/RAS foci formation, REF cooperation assay” value was 8.1 fold suppression.

Take B3: the “fold suppression of c-myc/RAS foci formation, REF cooperation assay” value came out at 5.3 fold suppression.

Take B4: the “fold suppression of c-myc/RAS foci formation, REF cooperation assay” value turned out to be 1.78 fold suppression.

In the case of B5, the “fold suppression of c-myc/RAS foci formation, REF cooperation assay” value was 1.57 fold suppression.
